Results as given in paper PMC8307404, “Crystal Structure-Guided Design of Bisubstrate Inhibitors and Photoluminescent Probes for Protein Kinases of the PIM Family” (Molecules, 2021).
Square brackets hold non-standard residues; d marks the D form. Peptide text beside a SMILES is read from it. * marks the point of attachment. X3 = O=C(CCCCCNCc1nc2c(sc3cc(Br)cnc32)c(=O)[nH]1)*

Columns and labels:
Assay in all cases: Kinase profiling (radiometric filter-binding)
Format in all cases: biochemical
PIM2 = PIM2 (Homo sapiens, UniProt Q9P1W9); details: PIM2, 1 µM inhibitor; read-out: Residual activity, %
PIM2, sequence (Q9P1W9 whole entry): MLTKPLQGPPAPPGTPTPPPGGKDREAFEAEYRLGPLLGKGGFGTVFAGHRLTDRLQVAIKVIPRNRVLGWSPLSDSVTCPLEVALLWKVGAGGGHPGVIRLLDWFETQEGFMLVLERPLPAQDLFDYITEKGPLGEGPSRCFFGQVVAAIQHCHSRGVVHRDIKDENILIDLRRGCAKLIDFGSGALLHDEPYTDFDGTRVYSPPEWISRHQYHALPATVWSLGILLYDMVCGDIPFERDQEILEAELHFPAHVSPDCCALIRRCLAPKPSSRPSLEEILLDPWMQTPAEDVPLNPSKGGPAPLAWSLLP
How it was run: (§1)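 Activity remaining (% of control without inhibitor) at 1 µM final compound; human kinases, ATP ≤ KM, radiometric filter binding.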

Aurora A = molecular target: T1, Aurora A (Homo sapiens, UniProt O14965); details: 1 µM inhibitor, read-out: Residual activity, %
T1 sequence (O14965 1-403): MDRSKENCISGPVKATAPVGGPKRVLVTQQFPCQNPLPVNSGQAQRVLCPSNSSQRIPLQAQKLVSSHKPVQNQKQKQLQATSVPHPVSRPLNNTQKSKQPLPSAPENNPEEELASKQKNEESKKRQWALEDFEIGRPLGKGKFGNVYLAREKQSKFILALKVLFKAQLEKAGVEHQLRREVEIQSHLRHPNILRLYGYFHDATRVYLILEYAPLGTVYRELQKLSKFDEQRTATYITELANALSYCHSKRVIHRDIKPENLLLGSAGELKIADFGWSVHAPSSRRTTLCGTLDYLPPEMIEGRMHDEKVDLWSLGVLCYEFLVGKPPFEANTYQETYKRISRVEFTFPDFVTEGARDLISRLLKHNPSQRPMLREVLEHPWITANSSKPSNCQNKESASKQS
How it was run: as §1

PKC = PKC (Homo sapiens, UniProt P17252); details: first of two PKC lines (Greek letter lost), 1 µM inhibitor, read-out: Residual activity, %
How it was run: as §1

TLK1 = molecular target: T2, TLK1 (Homo sapiens, UniProt Q9UKI8); details: TLK1, 1 µM inhibitor; read-out: Residual activity, %
T2 sequence (Q9UKI8 1-766): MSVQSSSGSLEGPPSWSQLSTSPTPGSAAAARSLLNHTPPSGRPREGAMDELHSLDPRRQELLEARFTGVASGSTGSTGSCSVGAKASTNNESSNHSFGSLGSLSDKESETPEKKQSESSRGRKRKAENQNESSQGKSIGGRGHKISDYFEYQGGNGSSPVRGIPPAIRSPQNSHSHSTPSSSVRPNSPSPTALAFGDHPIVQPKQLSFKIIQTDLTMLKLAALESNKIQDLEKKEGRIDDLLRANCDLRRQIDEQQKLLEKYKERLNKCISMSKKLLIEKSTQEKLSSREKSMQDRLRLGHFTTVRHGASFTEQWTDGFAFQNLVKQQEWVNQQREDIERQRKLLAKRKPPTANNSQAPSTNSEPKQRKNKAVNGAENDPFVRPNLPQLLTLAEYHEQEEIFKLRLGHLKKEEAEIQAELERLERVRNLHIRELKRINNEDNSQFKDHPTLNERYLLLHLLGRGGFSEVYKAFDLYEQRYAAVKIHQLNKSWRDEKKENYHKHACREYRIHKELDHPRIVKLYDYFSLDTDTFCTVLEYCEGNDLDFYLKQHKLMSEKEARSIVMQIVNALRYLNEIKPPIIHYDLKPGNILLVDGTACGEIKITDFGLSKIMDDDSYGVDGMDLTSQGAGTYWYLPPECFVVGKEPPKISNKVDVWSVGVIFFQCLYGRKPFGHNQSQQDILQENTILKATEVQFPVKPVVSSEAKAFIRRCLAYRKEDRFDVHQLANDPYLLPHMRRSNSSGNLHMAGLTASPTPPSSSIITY
How it was run: as §1

PHK = PHK (Homo sapiens, UniProt Q16816); details: 1 µM inhibitor, read-out: Residual activity, %
PHK, sequence (Q16816 whole entry): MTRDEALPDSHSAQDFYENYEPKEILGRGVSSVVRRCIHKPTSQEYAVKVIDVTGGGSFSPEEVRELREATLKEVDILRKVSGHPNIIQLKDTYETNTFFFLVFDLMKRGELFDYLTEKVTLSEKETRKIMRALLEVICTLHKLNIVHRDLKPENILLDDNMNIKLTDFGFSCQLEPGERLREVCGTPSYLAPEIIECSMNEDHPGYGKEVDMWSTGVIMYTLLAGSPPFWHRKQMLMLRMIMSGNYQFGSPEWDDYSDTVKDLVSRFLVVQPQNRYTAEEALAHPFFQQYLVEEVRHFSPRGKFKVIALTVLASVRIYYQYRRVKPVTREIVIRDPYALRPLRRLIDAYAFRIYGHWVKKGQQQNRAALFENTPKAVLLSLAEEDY
How it was run: as §1

ULK1 = molecular target: T3, ULK1 (Homo sapiens, UniProt O75385); details: ULK1, 1 µM inhibitor; read-out: Residual activity, %
T3 sequence (O75385 1-1050): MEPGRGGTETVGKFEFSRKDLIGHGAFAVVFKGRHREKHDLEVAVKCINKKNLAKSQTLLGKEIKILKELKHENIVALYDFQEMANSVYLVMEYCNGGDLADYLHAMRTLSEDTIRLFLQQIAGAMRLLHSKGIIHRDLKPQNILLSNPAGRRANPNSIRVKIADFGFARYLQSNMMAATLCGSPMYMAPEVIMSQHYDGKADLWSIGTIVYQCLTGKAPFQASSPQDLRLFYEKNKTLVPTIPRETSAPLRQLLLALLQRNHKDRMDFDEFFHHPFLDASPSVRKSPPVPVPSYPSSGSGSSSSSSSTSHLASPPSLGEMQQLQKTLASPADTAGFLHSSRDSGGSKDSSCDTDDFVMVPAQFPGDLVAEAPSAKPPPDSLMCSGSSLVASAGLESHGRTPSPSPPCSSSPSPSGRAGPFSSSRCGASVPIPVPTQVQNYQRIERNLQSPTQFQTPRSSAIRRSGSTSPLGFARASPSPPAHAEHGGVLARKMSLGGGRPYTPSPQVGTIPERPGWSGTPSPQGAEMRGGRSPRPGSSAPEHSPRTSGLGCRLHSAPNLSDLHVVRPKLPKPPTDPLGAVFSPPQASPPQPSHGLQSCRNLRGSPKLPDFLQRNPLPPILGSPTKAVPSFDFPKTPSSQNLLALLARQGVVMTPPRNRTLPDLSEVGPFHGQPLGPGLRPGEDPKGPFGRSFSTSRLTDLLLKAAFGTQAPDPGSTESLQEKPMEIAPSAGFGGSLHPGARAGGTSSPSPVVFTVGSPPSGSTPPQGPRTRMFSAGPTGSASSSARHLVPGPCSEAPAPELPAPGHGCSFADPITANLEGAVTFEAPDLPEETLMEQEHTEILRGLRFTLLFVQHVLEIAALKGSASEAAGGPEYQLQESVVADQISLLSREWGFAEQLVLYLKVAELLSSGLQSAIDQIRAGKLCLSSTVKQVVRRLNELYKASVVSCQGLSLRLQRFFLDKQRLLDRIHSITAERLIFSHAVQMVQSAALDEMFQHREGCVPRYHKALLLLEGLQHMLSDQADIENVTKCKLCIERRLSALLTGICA
How it was run: as §1

TrkA = TrkA (Homo sapiens, UniProt P04629); details: 1 µM inhibitor, read-out: Residual activity, %
TrkA, sequence (P04629 33-796): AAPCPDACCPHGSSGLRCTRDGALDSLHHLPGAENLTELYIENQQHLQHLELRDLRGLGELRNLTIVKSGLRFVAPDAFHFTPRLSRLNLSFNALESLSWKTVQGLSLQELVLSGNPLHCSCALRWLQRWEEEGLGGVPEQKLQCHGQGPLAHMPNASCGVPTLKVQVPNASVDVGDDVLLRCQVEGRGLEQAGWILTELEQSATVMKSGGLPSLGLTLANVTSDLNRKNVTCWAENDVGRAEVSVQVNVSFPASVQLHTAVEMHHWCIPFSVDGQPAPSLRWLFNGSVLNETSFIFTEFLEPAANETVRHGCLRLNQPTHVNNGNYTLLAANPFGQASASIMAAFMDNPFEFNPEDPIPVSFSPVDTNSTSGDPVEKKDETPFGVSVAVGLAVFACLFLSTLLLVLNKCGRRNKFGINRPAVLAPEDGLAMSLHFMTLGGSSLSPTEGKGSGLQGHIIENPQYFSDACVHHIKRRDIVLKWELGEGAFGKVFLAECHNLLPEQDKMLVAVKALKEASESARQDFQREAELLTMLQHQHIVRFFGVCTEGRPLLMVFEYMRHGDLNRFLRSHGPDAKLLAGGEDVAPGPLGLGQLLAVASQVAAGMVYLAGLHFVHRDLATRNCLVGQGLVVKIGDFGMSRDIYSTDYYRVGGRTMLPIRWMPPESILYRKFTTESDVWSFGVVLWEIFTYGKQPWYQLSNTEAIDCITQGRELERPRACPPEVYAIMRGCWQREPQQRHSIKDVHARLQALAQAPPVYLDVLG
How it was run: as §1

SMILES | remaining activity at 1 µM (PIM2) [%] | remaining activity at 1 µM (Aurora A) [%] | remaining activity at 1 µM (PKC) [%] | remaining activity at 1 µM (TLK1) [%] | remaining activity at 1 µM (PHK) [%] | remaining activity at 1 µM (ULK1) [%] | remaining activity at 1 µM (TrkA) [%]
N=C(N)NCCC[C@@H](NC(=O)CNC(=O)[C@@H](CCCNC(=N)N)NC(=O)[C@@H](CCCNC(=N)N)NC(=O)CCCCCCCNCc1nc2c(sc3cc(Br)cnc32)c(=O)[nH]1)C(=O)N[C@H](CCCCN)C(N)=O [Compound 1, BPTP-Aoc-(D-Arg)2-Gly-D-Arg-D-Lys-NH2] | 72 | 99 ± 6 | 112 ± 2 | 118 ± 1 | 109 ± 3 | 107 ± 5 | 106 ± 17
N=C(N)NCCC[C@@H](NC(=O)CCCCCNCc1nc2c(sc3cc(Br)cnc32)c(=O)[nH]1)C(=O)N[C@H](CCCNC(=N)N)C(=O)N[C@H](CCCNC(=N)N)C(=O)N[C@H](CCCNC(=N)N)C(=O)N[C@H](CCCNC(=N)N)C(=O)N[C@H](CCCNC(=N)N)C(=O)N[C@H](CCCCN)C(N)=O [ARC-3126, BPTP-Ahx-(D-Arg)6-D-Lys-NH2] (X3-[dR][dR][dR][dR][dR][dR][dK]-NH2) | 10 | 132 ± 8 | 115 ± 17 | 91 ± 10 | 128 ± 10 | 119 ± 6 | 112 ± 21
N=C(N)NCCC[C@@H](NC(=O)CCCCCNC(=O)Cn1cnc2c(I)c(I)c(I)c(I)c21)C(=O)N[C@H](CCCNC(=N)N)C(=O)N[C@H](CCCNC(=N)N)C(=O)N[C@H](CCCNC(=N)N)C(=O)N[C@H](CCCNC(=N)N)C(=O)N[C@H](CCCNC(=N)N)C(=O)N[C@H](CCCCN)C(N)=O [ARC-3125, TIBI-CH2-C(=O)-Ahx-(D-Arg)6-D-Lys-NH2] | 0 | 84 ± 1 | 81 ± 9 | 78 ± 1 | 104 ± 11 | 89 ± 9 | 97 ± 7
N=C(N)NCCC[C@@H](NC(=O)CNC(=O)[C@@H](CCCNC(=N)N)NC(=O)[C@@H](CCCNC(=N)N)NC(=O)CCCCCCCNCc1nc2c(sc3ccc(Br)cc32)c(=O)[nH]1)C(=O)N[C@H](CCCCN)C(N)=O [Compound 2, BBTP-Aoc-(D-Arg)2-Gly-D-Arg-D-Lys-NH2] | 7 ± 1 | 106 ± 3 | 102 ± 4 | 122 ± 9 | 98 ± 4 | 99 ± 6 | 128 ± 13
N=C(N)NCCC[C@@H](NC(=O)CNC(=O)[C@@H](CCCNC(=N)N)NC(=O)[C@@H](CCCNC(=N)N)NC(=O)Cn1cc(CNCc2nc3c(sc4ccc(Br)cc43)c(=O)[nH]2)nn1)C(=O)N[C@H](CCCCN)C(N)=O [Compound 3, BBTP-Amt-(D-Arg)2-Gly-D-Arg-D-Lys-NH2] | 15 ± 1 | 97 ± 3 | 110 ± 5 | 109 ± 10 | 78 ± 6 | 108 ± 11 | 95 ± 2
